Values quoted from earlier work in patent US12653792B2, “Synthetic lipids for mRNA delivery” (Trustees of Tufts College, priority 2019, dated 2026).

Biological target: T1, ANGPTL3 (Homo sapiens, UniProt Q9Y5C1)
T1 sequence (Q9Y5C1 17-460): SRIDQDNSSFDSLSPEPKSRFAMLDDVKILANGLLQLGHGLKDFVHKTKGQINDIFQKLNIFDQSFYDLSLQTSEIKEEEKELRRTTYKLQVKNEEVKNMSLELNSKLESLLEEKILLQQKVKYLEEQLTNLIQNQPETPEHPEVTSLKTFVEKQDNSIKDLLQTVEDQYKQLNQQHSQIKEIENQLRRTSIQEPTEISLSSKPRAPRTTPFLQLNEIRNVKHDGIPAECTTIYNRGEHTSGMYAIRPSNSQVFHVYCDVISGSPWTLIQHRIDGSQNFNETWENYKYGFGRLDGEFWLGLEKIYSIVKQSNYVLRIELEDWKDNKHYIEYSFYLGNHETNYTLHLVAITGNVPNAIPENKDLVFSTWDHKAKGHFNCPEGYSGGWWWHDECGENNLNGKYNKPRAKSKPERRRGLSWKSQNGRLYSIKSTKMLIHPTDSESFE
Conditions: healthy human volunteers, clinical trial

## evinacumab: ANGPTL3 targeting monoclonal antibody
  LDL-C and TG levels: effective reduction in LDL-C and TG levels
